Results as given in patent publication US12390511B2, “Product and process for mucus viscosity normalization” (ORPRO THERAPEUTICS, INC., priority 2013, dated 2025).

Assay: Compaction assay to assess liquefaction of human CF sputum
Settings: 0.58 mM in diluent, n=6 per treatment; FIG. 2
Description: Compaction assay to assess liquefaction of human CF sputum. For all manipulations, CF sputum was handled under a microbiologic hood. rhTrx, r(Cys)hTrx or diluent alone (25 microliters), in relevant concentrations, was added to CF sputum (275 microliters) in a 1.5 ml Eppendorf conical tube and mixed by very brief vortexing. After incubation at 37 degrees C. for 30 min, samples were again briefly mixed and loaded into hematocrit tubes and sealed at both ends. After a 5 minute centrifugation in a hematocrit centrifuge, the percent solids (gel) and percent liquid was determined by direct linear measurement and expressed as percent liquid as follows: 100×liquid/(liquid+solids). For each condition, sputum from at least five different CF patients was measured in triplicate.
Comparison of efficacy with standard of care mucolytic agent (rhDNase). For these studies, relevant concentrations of rhTrx, r(Cys)hTrx and rhDNase were compared by incubation as described above. After 30 minutes, samples were assessed for changes in liquefaction of sputum (compaction assay) and alteration of viscoelasticity. In addition, synergy studies were performed. […] For each condition, sputum from at least five different CF patients were measured in triplicate. […]
Human CF sputum collection. Sputum was obtained from adult and pediatric patients with CF as determined by a health care provider. […]

B1: rhDNase: standard of care CF mucolytic Pulmozyme (rhDNase I; dornase alfa) (protein, UniProt P24855 23-282, looked up)
Deoxyribonuclease-1: LKIAAFNIQTFGETKMSNATLVSYIVQILSRYDIALVQEVRDSHLTAVGKLLDNLNQDAPDTYHYVVSEPLGRNSYKERYLFVYRPDQVSAVDSYYYDDGCEPCGNDTFNREPAIVRFFSRFTEVREFAIVPLHAAPGDAVAEIDALYDVYLDVQEKWGLEDVMLMGDFNAGCSYVRPSQWSSIRLWTSPTFQWLIPDSADTTATPTHCAYDRIVVAGMLLRGAVVPDSALPFNFQAAYGLSDQLAQAISDHYPVEVMLK
- liquefaction of patient sputum / mucus-normalizing potency at equimolar concentrations: more potent than equimolar amounts of NAC
